Data from paper PMC7054835, “MyD88 Death-Domain Oligomerization Determines Myddosome Architecture: Implications for Toll-like Receptor Signaling” (Structure(London, England:1993), 2020).

Biological target: the molecule itself
Assay: AUC; sedimentation velocity (30,000 rev/min) and sedimentation equilibrium (3200 and 4200 rev/min, 250 and 280 nm) of hMyD88^DD alone, 35 uM, 293 K, 20 mM Tris, 20 mM NaCl, pH 8.0, 5% glycerol

B1: human MyD88 death domain construct (N-terminal death and intermediate domains of hMyD88, 1-151) (domain or fragment, UniProt Q99836 1-151, looked up)
chain: MAAGGPGAGSAAPVSSTSSLPLAALNMRVRRRLSLFLNVRTQVAADWTALAEEMDFEYLEIRQLETQADPTGRLLDAWQGRPGASVGRLLELLTKLGRDDVLLELGPSIEEDCQKYILKQQQEEAEKPLQVAAVDSSVPRTAELAGITTLD
notes: Myeloid differentiation primary response 88 (MyD88), human, residues 1-151: death domain plus a 30-residue segment of the intermediate domain; printed monomer mass 17.5 kDa; Forms open-ended helical filaments of several hundred subunits at 35 uM and above; The model in the map holds 103 residues per subunit and ends at Q121; also called hMyD88^DD; MyD88^DD; source: E. coli BL21 DE3 Rosetta 2, …
  binding result: binds
